The subject of the assay is Experimental Autoimmune Encephalomyelitis (EAE). Briefly: chronic EAE model in C57BY6 mice, clinical score. In kind it is in vivo. The conditions noted are these: chronic EAE in C57BY6 mice (MOG/CFA + B. pertussis toxin); subcutaneous daily treatment, 20,000 U/mouse, started at onset of the disease, 28 to 30 days. The procedure: The most widely used animal model for multiple sclerosis is Experimental Autoimmune Encephalomyelitis (EAE), based on shared histopathological and clinical features with the human disease:
The chronic EAE model in C57BY6 mice shares some common traits with the primary progressive (PP) or secondary progressive (SP) forms of MS. Mice are immunized in both flanks at day 0 and day 7 with 200 μg s.c. of myelin oligodendrocyte glycoprotein (MOG) in Complete Freund's Adjuvant (CFA) and followed by two injections (on day 0 and day 2) with 500 ng i.p. of B. pertussis toxin.
Groups are composed of 10 to 13 EAE mice. Clinical scores, overall health status, body weight and mortality are recorded daily. Starting from day 7 the animals are individually examined for the presence of paralysis by means of a clinical score: 0=no sign of disease, 1=tail paralysis, 2=tail paralysis+hindlimb weakness or partial hindlimb paralysis, 3=tail paralysis+complete hindlimb paralysis, 4=tail paralysis+hindlimb paralysis+weakness or partial paralysis of forelimbs, 5=moribund or dead.
Starting from day 10-12, most animals are becoming increasingly paralysed.
Therapeutic treatments are started at the onset of the disease, thus once the disease is already established but still progressing and continued for 28 to 30 days. […]

B1: mIFNβ: mIFNβ (Serono Pharmaceutical Research Institute, Geneva), interferon beta given to EAE mice (protein, UniProt P01575 22-182, looked up)
Interferon beta: INYKQLQLQERTNIRKCQELLEQLNGKINLTYRADFKIPMEMTEKMQKSYTAFAIQEMLQNVFLVFRNNFSSTGWNETIVVRLLDELHQQTVFLKTVLEEKQEERLTWEMSSTALHLKSYYWRVQRYLKLMKYNSYAWMVVRAEIFRNFLIIRRLTRNFQN
Regarding B1, the “clinical output (severity of the disease, paralysis clinical score)” value is given as “significantly reducing the severity of the disease from complete hindlimb to partial hindlimb paralysis”.

(Values after patent publication US20090136450A1, “THERAPY FOR NEUROLOGICAL DISEASES” (priority 2005, published 2009).)
